Laboratory results from US20050113284A1, “Drug for regenerating tissue and vessel and method therefor” (priority 2001, published 2005).

Legend:
[1] = target: T1, MERMUC self-association (Homo sapiens, UniProt Q8N307); assay: Suppression of MERMUC self-association by MERMUC cytoplasmic region peptides (β-gal activity, CHO-K1 cells); assay type: cell-based; conditions: compared among del-1 to del-4; FIG. 16
T1 construct: human MERMUC (full-length; full)/β-galΔα; β-galΔω (E. coli β-galactosidase residues 1-789); β-galΔα (E. coli β-galactosidase lacking residues 12-42); expressed in transfected cells; host or cells: CHO cells (A5); CHO-K1 cells (A6); pcDNA3 vectors
T1 sequence (Q8N307 with tags, fused parts or gaps R136E/DEL182-352/L354P/T442I/D493H limits assumed): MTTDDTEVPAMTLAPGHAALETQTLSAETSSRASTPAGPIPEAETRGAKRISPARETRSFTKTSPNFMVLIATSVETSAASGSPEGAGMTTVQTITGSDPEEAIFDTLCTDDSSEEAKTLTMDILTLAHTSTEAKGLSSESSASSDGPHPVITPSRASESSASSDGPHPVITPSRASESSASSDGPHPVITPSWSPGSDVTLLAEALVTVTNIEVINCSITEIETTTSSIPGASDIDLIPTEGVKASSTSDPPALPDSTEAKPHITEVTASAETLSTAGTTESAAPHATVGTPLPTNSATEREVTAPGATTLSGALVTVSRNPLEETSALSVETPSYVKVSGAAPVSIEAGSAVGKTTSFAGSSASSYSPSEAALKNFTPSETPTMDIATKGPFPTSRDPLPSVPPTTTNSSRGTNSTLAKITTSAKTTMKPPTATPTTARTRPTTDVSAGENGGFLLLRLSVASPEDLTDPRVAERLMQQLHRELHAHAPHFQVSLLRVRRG
Excerpt: (§1) To validate this prediction and at the same time synthesize a MERMUCMERMUC peptide that is able to suppress MERMUC self-association through the binding to the MERMUC self-association region, the following 4 types of peptides each corresponding to a part of MERMUC cytoplasmic region were synthesized by the method described later: • del-1: amino acid sequence from amino acids 244 to 345 of SEQ ID NO: 10; • del-2: amino acid sequence from amino acids 244 to 380 of SEQ ID NO: 10; • del-3: amino acid sequence from amino acids 244 to 415 of SEQ ID NO: 10; and • del-4: amino acid sequence from amino acids 244 to 450 of SEQ ID NO: 10.
(§2) Each of the cDNA obtained by PCR was digested with HindIII and XhoI and inserted into the HindIII/XhoI site of pcDNA3 vector to obtain an expression vector expressing each of the human MERMUC cytoplasmic region fragments (del-1 to del-4). […]
(§3) Intracellular β-Galactosidase activity of the recombinant cells was measured using Gal-Screen System (Applied Biosystems) according to the accompanying protocol 48 hr after plasmid transfection. […]

[2] = target: T2, MERMUC self-association (Homo sapiens, UniProt Q8N307, D493H/DEL182-352/L354P/R136E/T442I); assay: as above; assay type: cell-based; conditions: various concentrations of del-4; FIG. 18
T2 construct: human MERMUC (full-length; full)/β-galΔα; β-galΔω (E. coli β-galactosidase residues 1-789); β-galΔα (E. coli β-galactosidase lacking residues 12-42); expressed in transfected cells; host or cells: CHO cells (A5); CHO-K1 cells (A6); pcDNA3 vectors
T2 sequence (Q8N307 with tags, fused parts or gaps R136E/DEL182-352/L354P/T442I/D493H limits assumed): T1 sequence (Q8N307 with tags, fused parts or gaps R136E/DEL182-352/L354P/T442I/D493H limits assumed)
Excerpt: as §1, §2, §3

[3] = test system: binding of MERMUC and HGF receptor c-Met; assay: Suppression of MERMUC binding to HGF receptor c-Met by MERMUC cytoplasmic region peptides (β-gal activity, CHO-K1 cells); assay type: cell-based, human
[4] = test system: MAP kinase (Erk); assay: Recovery of HGF-induced MAP kinase activation in MERMUC/293 cells (Western blotting); assay type: cell-based, human; conditions: MERMUC expressing MERMUC/293 cells transfected with del-4 expression vector vs mock
Description: The del-4 protein expression vector produced above was added to Tet-Off/MERMUC expressing recombinant cells (MERMUC/293 cells) (produced in Example 2) and cultured at 37° C. for 48 hr for transfection using GeneJammer Transfection Reagent (STRATAGENE) according to the accompanying protocol.
Cells were similarly transfected with pcDNA3 vector [mock] that lack the cDNA encoding del-4 instead of the del-4 expression vector as a control.
The cells were stimulated with human recombinant HGF (CALBIOCHEM), and cell lysate was prepared according to conventional method immediately after the stimulation to evaluate the activation level of MAP kinase (also referred to as Erk).
The cell lysate was separated by SDS-PAGE, and then subjected to Western blotting according to conventional method using anti-phosphorylated MAP kinase polyclonal antibody (Phospho-p44/42 MAP kinase (Thr202/Thr204) antibody; Cell Signaling Technology) to determine the MAP kinase activation level based on the obtained signal intensity.

- suppression of MERMUC self-association [1]: strongest suppression
B1: del-4: MERMUC cytoplasmic region peptide, amino acids 244 to 450 of SEQ ID NO: 10 (protein, listed as Homo sapiens)
chain: VKASSTSDPPALPDSTEAKPHITEVTASAETLSTAGTTESAAPHATVGTPLPTNSATEREVTAPGATTLSGALVTVSRNPLEETSALSVETPSYVKVSGAAPVSIEAGSAVGKTTSFAGSSASSYSPSEAALKNFTPSETPTMDIATKGPFPTSRDPLPSVPPTTTNSSRGTNSTLAKITTSAKTTMKPPTATPTTARTRPTTDVSA
- suppression of MERMUC self-association, dose dependence [2]: increased in del-4 dosage-dependent manner
- decrease in the binding of MERMUC and HGF receptor c-Met ([3]; compared among del-1 to del-4, FIG. 17): greatest decrease
- suppression of the binding of MERMUC and HGF receptor c-Met, dose dependence ([3]; various concentrations of del-4, FIG. 18): increased in del-4 dosage-dependent manner
- phosphorylated MAP kinase level after HGF stimulation [4]: a significant level of phosphorylated MAP kinase was observed
